From patent publication US20150344570A1 (published 2015) come the findings set out here.

T1: FcγRIIb extracellular domain with C-terminal His tag (human, UniProt P31994 43-217)
T1 construct: extracellular domain; soluble analyte in Biacore; also called FcgRIIb; not shown: His tag at the C terminus
T1 sequence (looked up): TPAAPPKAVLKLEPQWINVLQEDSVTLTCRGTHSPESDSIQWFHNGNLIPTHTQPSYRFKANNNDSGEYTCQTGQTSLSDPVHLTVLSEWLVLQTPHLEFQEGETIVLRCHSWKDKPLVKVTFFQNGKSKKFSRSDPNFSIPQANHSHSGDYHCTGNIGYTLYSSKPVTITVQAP

B1: GpH7-A5/GpH7-B3 variant D270_04F/GpL16-k0 (antibody, human IgG1, kappa)
heavy 1: not shown
heavy 2: not shown
light: DIVMTQSPLSLPVTPGEPASISCQASESLVHSNRNTYLHWYLQKPGQSPQLLIYKVSNRFSGVPDRFSGSGSGTDFTLKISRVEAEDVGVYYCSQNTHVPPTFGQGTKVEIERTVAAPSVFIFPPSDEQLKSGTASVVCLLNNFYPREAKVQWKVDNALQSGNSQESVTEQDSKDSTYSLSSTLTLSKADYEKHKVYACEVTHQGLSSPVTKSFNRGEC
notes: change in the GpH7-B3 H chain only; also called He Ab
B2: GpH7-A5/GpH7-B3 variant D270_11K/GpL16-k0 (antibody, human IgG1, kappa)
heavy 1: not shown
heavy 2: not shown
light: B1 light
notes: as for B1
B3: GpH7-A5/GpH7-B3 variant D270_19Q/GpL16-k0 (antibody, human IgG1, kappa)
heavy 1: not shown
heavy 2: not shown
light: B1 light
notes: as for B1
B4: GpH7-A5/GpH7-B3 variant D270_06M/GpL16-k0 (antibody, human IgG1, kappa)
heavy 1: not shown
heavy 2: not shown
light: B1 light
notes: as for B1
B5: GpH7-A5/GpH7-B3 variant E269_19Q/GpL16-k0 (antibody, human IgG1, kappa)
heavy 1: not shown
heavy 2: not shown
light: B1 light
notes: as for B1
B6: GpH7-A5/GpH7-B3 variant D270_16H/GpL16-k0 (antibody, human IgG1, kappa)
heavy 1: not shown
heavy 2: not shown
light: B1 light
notes: as for B1
B7: GpH7-A5/GpH7-B3 variant D270_15Y/GpL16-k0 (antibody, human IgG1, kappa)
heavy 1: not shown
heavy 2: not shown
light: B1 light
notes: as for B1
B8: GpH7-A5/GpH7-B3 variant D270_05P/GpL16-k0 (antibody, human IgG1, kappa)
heavy 1: not shown
heavy 2: not shown
light: B1 light
notes: as for B1
B9: GpH7-A5/GpH7-B3 variant D270_14T/GpL16-k0 (antibody, human IgG1, kappa)
heavy 1: not shown
heavy 2: not shown
light: B1 light
notes: as for B1
B10: GpH7-A5/GpH7-B3 variant D270_18N/GpL16-k0 (antibody, human IgG1, kappa)
heavy 1: not shown
heavy 2: not shown
light: B1 light
notes: as for B1
B11: GpH7-A5/GpH7-B3 variant D270_13S/GpL16-k0 (antibody, human IgG1, kappa)
heavy 1: not shown
heavy 2: not shown
light: B1 light
notes: as for B1
B12: GpH7-A5/GpH7-B3 variant D270_08L/GpL16-k0 (antibody, human IgG1, kappa)
heavy 1: not shown
heavy 2: not shown
light: B1 light
notes: as for B1
B13: GpH7-A5/GpH7-B3 variant D270_12R/GpL16-k0 (antibody, human IgG1, kappa)
heavy 1: not shown
heavy 2: not shown
light: B1 light
notes: as for B1
B14: GpH7-A5/GpH7-B3 variant D270_07I/GpL16-k0 (antibody, human IgG1, kappa)
heavy 1: not shown
heavy 2: not shown
light: B1 light
notes: as for B1

In one experiment the target is T2, FcγRIa extracellular domain with C-terminal His tag (human, UniProt P12314 16-292).
T2 construct: extracellular domain; soluble analyte in Biacore; also called FcgRI; not shown: His tag at the C terminus
T2 sequence (P12314 16-292): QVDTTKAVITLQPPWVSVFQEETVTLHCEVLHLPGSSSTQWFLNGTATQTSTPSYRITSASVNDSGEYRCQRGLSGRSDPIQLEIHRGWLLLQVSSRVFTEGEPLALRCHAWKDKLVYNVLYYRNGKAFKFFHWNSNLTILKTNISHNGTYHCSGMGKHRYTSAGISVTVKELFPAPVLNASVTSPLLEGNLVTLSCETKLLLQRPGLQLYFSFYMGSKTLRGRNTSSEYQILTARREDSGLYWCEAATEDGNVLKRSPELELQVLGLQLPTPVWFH
The experiment can be described thus: SPR; He/Con_1a divided by He/Con_2b (FcγRIa against FcγRIIb). The protocol:
The heterodimerized antibodies He Abs in which one of the H chains was introduced with an alteration were assayed for their binding activities to each activating FcγR and inhibitory FcγR according to the method described in Example 4. […] The activating FcγRs in FIGS. 26, 27, 28, and 29 are FcγRIa, FcγRIIa (R), FcγRIIa (H), and FcγRIIIa, respectively.
Analysis of interaction between objective antibody and the FcγR was carried out using Biacore T100 (GE Healthcare). HBS-EP+ (GE Healthcare) was used as the running buffer, and the measurement temperature was set to 25° C. Chips produced by immobilizing the antigen peptide by the amine coupling method to a Series S Sencor Chip CM5 (GE Healthcare), or alternatively, chips produced by allowing preliminarily biotinylated antigen peptides to interact with and immobilize onto a Series S Sensor Chip SA (certified) (GE Healthcare) were used. Antibodies of interest were captured onto an antigen peptide-immobilized chip, and allowed to interact to each FcγR diluted with running buffer. To regenerate and repeatedly use the chip, the antibodies captured on the chip were washed off by reacting 10 mM glycine-HCl, pH 1.5.
In general terms: In SPR one partner is held on a chip, and binding of the other changes the refractive index at the surface.
Take B1: the “He_1a/2b (Ia/IIb)” value came out at 1.47 ratio.

For B2, the “He_1a/2b (Ia/IIb)” value is 2.88 ratio.

Turning to B3, the “He_1a/2b (Ia/IIb)” value is 1.63 ratio.

As for B4, the “He_1a/2b (Ia/IIb)” value turned out to be 1.64 ratio.

Regarding B5, the “He_1a/2b (Ia/IIb)” value is 2.37 ratio.

On to B6, for which the “He_1a/2b (Ia/IIb)” value came to 1.4 ratio.

With B7, the “He_1a/2b (Ia/IIb)” value was determined as 1.53 ratio.

As to B8, the “He_1a/2b (Ia/IIb)” value stood at 4.81 ratio.

Consider B9, for which the “He_1a/2b (Ia/IIb)” value was determined as 1.22 ratio.

With B10, the “He_1a/2b (Ia/IIb)” value turned out to be 1.68 ratio.

Regarding B11, the “He_1a/2b (Ia/IIb)” value was 1.7 ratio.

Consider B12, for which the “He_1a/2b (Ia/IIb)” value is 1.37 ratio.

With B13, the “He_1a/2b (Ia/IIb)” value is 3.63 ratio.

With B14, the “He_1a/2b (Ia/IIb)” value came out at 1.8 ratio.

The next experiment has as its target T1, FcγRIIb extracellular domain with …. As to the kind of experiment: SPR, binding relative to GpH7-A5/GpH7-B3/GpL16-k0 = 100.
For the molecule B1, the He/Con_2b is 53.1 % of control.

Consider B2, for which the He/Con_2b is 20.3 % of control.

Turning to B3, the He/Con_2b was 48 % of control.

Take B4: the He/Con_2b was 48.2 % of control.

Turning to B5, the He/Con_2b was 44.3 % of control.

Consider B6, for which the He/Con_2b is 47.2 % of control.

B7: the He/Con_2b is 44.9 % of control.

B8: the He/Con_2b was 13.9 % of control.

For the molecule B9, the He/Con_2b is 57.8 % of control.

B10: the He/Con_2b was 40.3 % of control.

As to B11, the He/Con_2b is 44.2 % of control.

Consider B12, for which the He/Con_2b was 53.6 % of control.

For the molecule B13, the He/Con_2b was 18.3 % of control.

B14: the He/Con_2b is 41.5 % of control.

In another experiment the target is T2, FcγRIa extracellular domain with …. The experiment is described as above.
B1: the He/Con_1a is 78.1 % of control.

B2: the He/Con_1a was 58.4 % of control.

For B3, the He/Con_1a is 78.2 % of control.

Turning to B4, the He/Con_1a is 78.8 % of control.

Regarding B5, the He/Con_1a was 105 % of control.

For the molecule B6, the He/Con_1a was 66 % of control.

Regarding B7, the He/Con_1a was 68.5 % of control.

As to B8, the He/Con_1a was 67.1 % of control.

In the case of B9, the He/Con_1a was 70.6 % of control.

For the molecule B10, the He/Con_1a was 67.8 % of control.

Take B11: the He/Con_1a was 75.3 % of control.

Regarding B12, the He/Con_1a is 73.5 % of control.

With B13, the He/Con_1a is 66.3 % of control.

With B14, the He/Con_1a is 74.6 % of control.
